Molecular target: Recombinant B19 parvovirus empty capsid particles (VP1/2) (B19 parvovirus) (UniProt P07299)
Assay: cell-based or functional assay

Substance: anti-B19 parvovirus monoclonal antibody (MAB8292)
- BFU-E colony counts (% of medium control), fetal liver cells; capsid 7 µg/ml + 0.02 µg/mL Mab (capsid only: 43%) (% of medium control): 52
- BFU-E colony counts (% of medium control), fetal liver cells; capsid 7 µg/ml + 0.2 µg/mL Mab (capsid only: 43%) (% of medium control): 52
- BFU-E colony counts (% of medium control), fetal liver cells; capsid 7 µg/ml + 2.0 µg/mL Mab (capsid only: 43%) (% of medium control): 69
- BFU-E colony counts (% of medium control), fetal liver cells; capsid 7 µg/ml + 20.0 µg/mL Mab (capsid only: 43%) (% of medium control): > 100
- CFU-GEMM colony counts (% of medium control), fetal liver cells; capsid 7 µg/ml + 0.02 µg/mL Mab (capsid only: 21%) (% of medium control): 21
- CFU-GEMM colony counts (% of medium control), fetal liver cells; capsid 7 µg/ml + 0.2 µg/mL Mab (capsid only: 21%) (% of medium control): 19
- CFU-GEMM colony counts (% of medium control), fetal liver cells; capsid 7 µg/ml + 2.0 µg/mL Mab (capsid only: 21%) (% of medium control): 45
- CFU-GEMM colony counts (% of medium control), fetal liver cells; capsid 7 µg/ml + 20.0 µg/mL Mab (capsid only: 21%) (% of medium control): 67
- CFU-GM colony counts (% of medium control), fetal liver cells; capsid 7 µg/ml + 0.02 µg/mL Mab (capsid only: 30%) (% of medium control): 30
- CFU-GM colony counts (% of medium control), fetal liver cells; capsid 7 µg/ml + 0.2 µg/mL Mab (capsid only: 30%) (% of medium control): 21
- CFU-GM colony counts (% of medium control), fetal liver cells; capsid 7 µg/ml + 2.0 µg/mL Mab (capsid only: 30%) (% of medium control): 35
- CFU-GM colony counts (% of medium control), fetal liver cells; capsid 7 µg/ml + 20.0 µg/mL Mab (capsid only: 30%) (% of medium control): 74

From patent US20030017596A1
